# In patent US20180079819A1 (IMMUNOGEN, published 2018):
# B1: huCD123-6Gv4.7S3-SeriMab-sD1 (antibody, human IgG1, kappa)
# heavy: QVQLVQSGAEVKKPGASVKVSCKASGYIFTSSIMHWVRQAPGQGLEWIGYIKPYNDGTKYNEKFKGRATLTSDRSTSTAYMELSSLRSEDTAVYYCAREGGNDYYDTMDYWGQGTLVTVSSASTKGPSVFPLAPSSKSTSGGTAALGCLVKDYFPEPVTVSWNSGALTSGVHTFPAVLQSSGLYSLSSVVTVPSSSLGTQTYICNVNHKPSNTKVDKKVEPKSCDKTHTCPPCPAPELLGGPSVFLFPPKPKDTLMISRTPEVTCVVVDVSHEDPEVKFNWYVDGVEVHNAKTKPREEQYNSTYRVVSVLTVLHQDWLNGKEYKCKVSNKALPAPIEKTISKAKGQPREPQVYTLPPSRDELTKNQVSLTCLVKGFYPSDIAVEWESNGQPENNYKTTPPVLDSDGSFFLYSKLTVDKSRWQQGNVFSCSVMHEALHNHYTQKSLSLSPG
# light: SIQMTQSPSSLSASVGDRVTITCRASQDINSYLSWFQQKPGKAPKTLIYRVNRLVDGVPSRFSGSGSGNDYTLTISSLQPEDFATYYCLQYDAFPYTFGQGTKVEIKRTVAAPSVFIFPPSDEQLKSGTASVVCLLNNFYPREAKVQWKVDNALQSGNSQESVTEQDSKDSTYSLSSTLTLSKADYEKHKVYACEVTHQGLSSPVTKSFNRGEC
# modifications: sulfonated D1 (sD1) linked through the oxidized N-terminal Ser on the light chain; average of 2.0 D1 per antibody
# notes: also called huCD123-6-SeriMab-sD1
# B2: huCD123-6Gv4.7S3-SeriMab-D8 (antibody, human IgG1, kappa)
# heavy: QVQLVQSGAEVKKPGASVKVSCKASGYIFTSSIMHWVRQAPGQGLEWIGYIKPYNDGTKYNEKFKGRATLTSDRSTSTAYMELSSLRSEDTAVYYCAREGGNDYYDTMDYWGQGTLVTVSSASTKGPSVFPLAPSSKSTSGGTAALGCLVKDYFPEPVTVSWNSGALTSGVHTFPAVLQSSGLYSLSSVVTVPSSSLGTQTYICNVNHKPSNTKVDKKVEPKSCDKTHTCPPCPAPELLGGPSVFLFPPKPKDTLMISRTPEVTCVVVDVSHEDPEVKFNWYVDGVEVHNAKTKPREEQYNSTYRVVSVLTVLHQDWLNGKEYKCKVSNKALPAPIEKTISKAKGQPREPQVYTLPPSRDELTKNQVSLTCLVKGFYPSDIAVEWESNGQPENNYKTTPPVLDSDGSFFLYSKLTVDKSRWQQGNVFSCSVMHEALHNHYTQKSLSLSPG
# light: SIQMTQSPSSLSASVGDRVTITCRASQDINSYLSWFQQKPGKAPKTLIYRVNRLVDGVPSRFSGSGSGNDYTLTISSLQPEDFATYYCLQYDAFPYTFGQGTKVEIKRTVAAPSVFIFPPSDEQLKSGTASVVCLLNNFYPREAKVQWKVDNALQSGNSQESVTEQDSKDSTYSLSSTLTLSKADYEKHKVYACEVTHQGLSSPVTKSFNRGEC
# modifications: D8 linked through the oxidized N-terminal Ser on the light chain
# B3: huCD123-6Gv4.7S3-sSPDB-D1 (antibody, human IgG1, kappa)
# heavy: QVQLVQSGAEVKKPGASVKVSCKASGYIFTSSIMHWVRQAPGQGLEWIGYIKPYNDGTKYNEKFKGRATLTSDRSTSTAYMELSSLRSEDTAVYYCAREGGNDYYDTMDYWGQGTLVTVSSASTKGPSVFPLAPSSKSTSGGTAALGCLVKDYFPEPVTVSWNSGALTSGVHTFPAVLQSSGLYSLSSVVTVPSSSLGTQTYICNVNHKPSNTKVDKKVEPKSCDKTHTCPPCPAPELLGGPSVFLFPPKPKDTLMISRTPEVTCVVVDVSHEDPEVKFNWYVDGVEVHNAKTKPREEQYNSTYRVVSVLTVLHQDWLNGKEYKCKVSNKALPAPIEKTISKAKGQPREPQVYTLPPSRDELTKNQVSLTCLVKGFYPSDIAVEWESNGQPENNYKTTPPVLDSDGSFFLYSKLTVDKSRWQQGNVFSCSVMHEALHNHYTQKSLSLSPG
# light: SIQMTQSPSSLSASVGDRVTITCRASQDINSYLSWFQQKPGKAPKTLIYRVNRLVDGVPSRFSGSGSGNDYTLTISSLQPEDFATYYCLQYDAFPYTFGQGTKVEIKRTVAAPSVFIFPPSDEQLKSGTASVVCLLNNFYPREAKVQWKVDNALQSGNSQESVTEQDSKDSTYSLSSTLTLSKADYEKHKVYACEVTHQGLSSPVTKSFNRGEC
# modifications: D1 linked at Lys residues via a sulfonated SPDB linker; sites not stated; D1 linked at Lys residues via a sulfonated SPDB linker; average of 2.9 D1 per antibody, sites not stated
# notes: also called huCD123Gv4.7S3-sulfo-SPDB-D1
# B4: huCD123-6Gv4.7S3-D2 (antibody, human IgG1, kappa)
# heavy: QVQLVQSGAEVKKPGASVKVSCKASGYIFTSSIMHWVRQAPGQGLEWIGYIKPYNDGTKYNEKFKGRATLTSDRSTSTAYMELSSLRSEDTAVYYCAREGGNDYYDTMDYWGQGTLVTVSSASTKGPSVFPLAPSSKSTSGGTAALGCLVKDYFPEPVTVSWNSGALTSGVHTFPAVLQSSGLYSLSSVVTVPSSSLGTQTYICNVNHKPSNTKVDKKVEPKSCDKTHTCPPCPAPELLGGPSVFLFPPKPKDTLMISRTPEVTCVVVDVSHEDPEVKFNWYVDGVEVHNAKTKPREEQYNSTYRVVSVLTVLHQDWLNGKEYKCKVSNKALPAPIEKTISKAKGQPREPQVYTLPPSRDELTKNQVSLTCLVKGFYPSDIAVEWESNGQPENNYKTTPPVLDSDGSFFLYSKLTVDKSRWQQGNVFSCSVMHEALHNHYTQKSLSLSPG
# light: SIQMTQSPSSLSASVGDRVTITCRASQDINSYLSWFQQKPGKAPKTLIYRVNRLVDGVPSRFSGSGSGNDYTLTISSLQPEDFATYYCLQYDAFPYTFGQGTKVEIKRTVAAPSVFIFPPSDEQLKSGTASVVCLLNNFYPREAKVQWKVDNALQSGNSQESVTEQDSKDSTYSLSSTLTLSKADYEKHKVYACEVTHQGLSSPVTKSFNRGEC
# modifications: D2 linked at Lys residues; sites not stated; D2 linked at Lys residues; average of 2.9 D2 per antibody, sites not stated
# B5: huCD123-6Gv4.7-CysMab (antibody)
# heavy chain: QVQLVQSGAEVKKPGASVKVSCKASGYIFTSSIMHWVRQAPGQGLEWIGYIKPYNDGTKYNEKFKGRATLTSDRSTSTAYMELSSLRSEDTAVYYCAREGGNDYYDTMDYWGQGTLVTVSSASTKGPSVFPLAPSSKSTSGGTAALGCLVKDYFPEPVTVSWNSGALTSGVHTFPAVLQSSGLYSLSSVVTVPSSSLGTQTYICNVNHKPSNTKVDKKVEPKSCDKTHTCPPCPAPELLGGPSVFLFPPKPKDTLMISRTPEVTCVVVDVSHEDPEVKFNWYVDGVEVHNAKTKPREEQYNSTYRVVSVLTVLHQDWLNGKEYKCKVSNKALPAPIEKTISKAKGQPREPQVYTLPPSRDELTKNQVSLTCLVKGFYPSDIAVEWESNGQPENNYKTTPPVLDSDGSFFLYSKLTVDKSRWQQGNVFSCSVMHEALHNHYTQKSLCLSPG
# light chain: DIQMTQSPSSLSASVGDRVTITCRASQDINSYLSWFQQKPGKAPKTLIYRVNRLVDGVPSRFSGSGSGNDYTLTISSLQPEDFATYYCLQYDAFPYTFGQGTKVEIKR
# notes: Differs from m21 (huCD123-6Gv4.7) by the engineered Cys in the heavy chain CH3 domain; it is the antibody part of m29 and m30
# B6: huCD123-6Gv4.7-CysMab-D4 (antibody)
# heavy: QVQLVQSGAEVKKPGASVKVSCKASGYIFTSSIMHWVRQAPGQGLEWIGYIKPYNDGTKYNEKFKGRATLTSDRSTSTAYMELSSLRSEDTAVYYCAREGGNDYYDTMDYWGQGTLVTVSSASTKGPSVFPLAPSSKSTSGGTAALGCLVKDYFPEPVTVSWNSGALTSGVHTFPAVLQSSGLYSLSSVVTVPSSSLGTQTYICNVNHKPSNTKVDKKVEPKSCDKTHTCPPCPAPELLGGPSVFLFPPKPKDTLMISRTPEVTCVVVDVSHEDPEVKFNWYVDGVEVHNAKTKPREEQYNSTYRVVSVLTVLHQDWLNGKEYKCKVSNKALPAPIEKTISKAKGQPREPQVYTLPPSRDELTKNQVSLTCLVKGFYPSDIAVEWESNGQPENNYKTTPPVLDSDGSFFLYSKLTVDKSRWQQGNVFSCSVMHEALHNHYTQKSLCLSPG
# light: DIQMTQSPSSLSASVGDRVTITCRASQDINSYLSWFQQKPGKAPKTLIYRVNRLVDGVPSRFSGSGSGNDYTLTISSLQPEDFATYYCLQYDAFPYTFGQGTKVEIKRTVAAPSVFIFPPSDEQLKSGTASVVCLLNNFYPREAKVQWKVDNALQSGNSQESVTEQDSKDSTYSLSSTLTLSKADYEKHKVYACEVTHQGLSSPVTKSFNRGEC
# modifications: D4 linked through the engineered Cys in the heavy chain CH3 domain (5th to the last residue of SEQ ID NO: 54; EU/OU position 442); 1.8 mol D4/mol antibody
# B7: lysine-linked huCD123-6-IGN conjugate with DGN462 (antibody, human IgG1, kappa)
# heavy: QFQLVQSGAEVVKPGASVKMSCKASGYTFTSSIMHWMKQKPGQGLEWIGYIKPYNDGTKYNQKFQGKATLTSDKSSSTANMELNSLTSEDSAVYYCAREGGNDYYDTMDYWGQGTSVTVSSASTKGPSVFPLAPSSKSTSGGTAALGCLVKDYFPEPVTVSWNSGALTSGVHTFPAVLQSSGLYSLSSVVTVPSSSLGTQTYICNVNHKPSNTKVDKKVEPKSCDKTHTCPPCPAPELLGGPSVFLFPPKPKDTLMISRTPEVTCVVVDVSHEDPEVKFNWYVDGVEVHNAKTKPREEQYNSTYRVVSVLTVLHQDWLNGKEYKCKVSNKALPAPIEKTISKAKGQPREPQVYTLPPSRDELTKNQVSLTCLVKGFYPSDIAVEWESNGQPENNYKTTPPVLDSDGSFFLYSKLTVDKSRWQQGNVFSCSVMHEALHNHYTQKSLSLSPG
# light: DIQMTQSPSSMSASVGERVTITCRASQDINSYLSWFQQKPGKSPKTLIYRVNRLVDGVPSRFSGSGSGQDYSLTISSLEPEDMGIYYCLQYDAFPYTFGQGTKLEIKRTVAAPSVFIFPPSDEQLKSGTASVVCLLNNFYPREAKVQWKVDNALQSGNSQESVTEQDSKDSTYSLSSTLTLSKADYEKHKVYACEVTHQGLSSPVTKSFNRGEC
# modifications: DGN462 linked at Lys residues; sites not stated; DGN462 linked at Lys residues; sites and drug load not given
# Target: T1, human CD123 (IL-3Rα, interleukin-3 receptor alpha chain) (human, UniProt P26951 19-378)
# T1 construct: CD123 on human cell lines (TF-1, HNT-34, MOLM-13 and other AML, B-ALL, CML and NHL lines) or on 300-19 cells stably expressing human CD123; also called CD123 antigen; human CD123 antigen
# T1 sequence (P26951 19-378): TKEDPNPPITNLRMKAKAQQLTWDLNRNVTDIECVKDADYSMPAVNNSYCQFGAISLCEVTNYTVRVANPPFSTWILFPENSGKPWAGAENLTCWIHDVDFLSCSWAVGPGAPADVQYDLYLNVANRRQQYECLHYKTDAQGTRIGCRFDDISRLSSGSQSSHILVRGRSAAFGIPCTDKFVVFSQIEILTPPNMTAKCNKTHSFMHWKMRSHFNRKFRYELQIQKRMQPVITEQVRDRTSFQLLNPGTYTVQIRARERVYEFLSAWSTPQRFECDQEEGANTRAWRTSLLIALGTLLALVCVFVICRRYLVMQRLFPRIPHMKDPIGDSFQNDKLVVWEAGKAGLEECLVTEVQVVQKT
# Assay: flow cytometry on HNT-34 cells, PE-conjugated goat anti-human secondary
row,Binder,EC50 (read off the curve) [pM]
1,B1,~200
2,B2,~200
3,B3,~100
4,B4,~100

# Target: T1, human CD123 (IL-3Rα, interleukin-3 …)
# Assay: as above
# Remark: another data set of the same source
row,Binder,EC50 (read off the curve) [pM]
1,B5,~40
2,B6,~60

# Target: T1, human CD123 (IL-3Rα, interleukin-3 …)
# Assay: cell-based or functional assay
Binder,"IC50, in vitro cytotoxicity on EOL-1 cells (AML) [pM]","IC50, in vitro cytotoxicity on Granta519 cells (NHL) [pM]","IC50, in vitro cytotoxicity on HNT-34 cells (AML) [pM]","IC50, in vitro cytotoxicity on JM-1 cells (B-ALL) [pM]","IC50, in vitro cytotoxicity on KASUMI-3 cells (AML) [nM]","IC50, in vitro cytotoxicity on KCL-22 cells (CML) [nM]","IC50, in vitro cytotoxicity on KG-1 cells (AML) [pM]","IC50, in vitro cytotoxicity on KO52 cells (AML) [pM]","IC50, in vitro cytotoxicity on KOPN8 cells (B-ALL) [pM]","IC50, in vitro cytotoxicity on MOLM-1 cells (CML) [nM]"
B7,9,12,23,320,2.8,2,850,390,53,1.1

# Same assay, conditions: not given
Binder,"IC50, in vitro cytotoxicity on MOLM-13 cells (AML) [pM]","IC50, in vitro cytotoxicity on MV4-11 cells (AML) [pM]","IC50, in vitro cytotoxicity on OCI-AML2 cells (AML) [pM]","IC50, in vitro cytotoxicity on SHI-1 cells (AML) [pM]","IC50, in vitro cytotoxicity on THP1 cells (AML) [pM]"
B7,2.2,1.6,140,170,190
